Measured values published in patent publication US20160068835A1, “FLEXIBLE DISPLAY METHOD” (PEPTIDREAM INC., priority 2013, published 2016).
Where no end group is shown, it is not given here. [ ]: non-standard residue; d: D form. The star is where a group is joined. ClAB‑L‑Phe = N-[3-(2-chloroacetamido)benzoyl]-L-phenylalanine, O=C(CCl)Nc1cccc(C(=O)N[C@@H](Cc2ccccc2)C(=O)*)c1; puromycin = COc1ccc(C[C@H](N*)C(=O)N[C@H]2[C@@H](O)[C@H](n3cnc4c(N(C)C)ncnc43)O[C@@H]2CO)cc1; An21 Pu‑linker = not defined here

Columns and labels:
[1] = target: T1, human serum albumin (HSA) (Homo sapiens, UniProt P02768); assay: Bonding assay of chemically synthesized peptides by Bio-Layer Interferometry (BLI method); assay type: binding; conditions: 50 mM Hepes-KOH pH 7.5, 300 mM NaCl, 0.05% Tween20, 0.001% DMSO, 30° C.; peptide 1-16 nM; FIG. 8
Method: (§1) Next, these peptides were chemically synthesized by Fmoc solid phase synthesis, and the bond to HSA was assessed using the Bio-Layer Interferometry method (BLI method). A bonding assay was performed under the condition of 50 mM Hepes-KOH pH 7.5, 300 mM NaCl, 0.05% Tween20 and 0.001% DMSO at 30° C. Each step of the assay consists of the bond reaction of peptide to HSA being 500 s, and the dissociation reaction being 500 s. The peptide solution was created by the following dilution series (p1: 16, 12, 8, 2, 1 nM, and p2: 16, 12, 8, 4 nM).

[2] = target: T1, human serum albumin (HSA); assay: Pull-down of peptides displayed as An21-type complexes with HSA-immobilized SA beads, recovered cDNA quantified by real-time PCR; assay type: binding; conditions: An21-type display complexes; HSA-immobilized SA beads vs SA beads free of HSA; FIG. 5e
Method: Derivative peptides having reverse and shuffled sequences of the selected peptides (p1 and p2) and the original peptide were prepared as the An21-type complexes. […] Furthermore, since the bonding activity to HSA is lost when the amino acid sequence of the obtained cyclic peptide is reconfigured (reversed or shuffled), it could be seen that the bond of peptide to HSA is sequence-dependent (FIG. 5e).
mRNAs of p1 and p2 were synthesized from the colony PCR product. The reverse or shuffled sequences of the mRNAs of the p1 and p2 peptides were prepared as follows. The DNA template was prepared using T7SD8M2.F44 as the forward primer, and SD8No38revG5S4.R69, SD8No38ranG5S4.R69, SD8No41revG5S4.R75 or SD8No41ranG5S4.R75 as the reverse primer. An elongation PCR and transcription were performed by a method similar to the method used in preparation of T7-mRNA. mRNA was purified by phenol/chloroform extraction and 2-propanole precipitation, and dissolved in ultrapure water.
Translation (2 μL), reverse transcription (4 μL), and the quenching reaction (5.25 μL) were performed by the above method.
2 μL of the obtained solution was mixed with HSA immobilized SA beads (0.3 pmol HSA) or SA-beads. After incubation at room temperature for 10 min., the beads were washed three times with 10 μL of HBST. […] The recovered cDNA was quantified with real-time PCR.

human serum albumin [3] = target: T2, human serum albumin (human, UniProt P02768 25-609); assay: pull-down of the An21-type display complex on HSA-immobilized SA beads, recovered cDNA quantified by real-time PCR
T2 construct: also called HSA
Method: Derivative peptides having reverse and shuffled sequences of the selected peptides (p1 and p2) and the original peptide were prepared as the An21-type complexes. The obtained complexes were subjected to pull-down using the HSA-immobilized SA beads and the SA beads free of HSA, and the recovered cDNA was quantified, which provided the result that p1 and p2 actually bond with HSA (FIG. 5e). Furthermore, since the bonding activity to HSA is lost when the amino acid sequence of the obtained cyclic peptide is reconfigured (reversed or shuffled), it could be seen that the bond of peptide to HSA is sequence-dependent (FIG. 5e).

human serum albumin [4] = target: T2, human serum albumin; assay: Bio-Layer Interferometry (BLI), synthetic peptide at 16, 12, 8, 2, 1 nM, 30 C
Method: as §1

human serum albumin [5] = target: T2, human serum albumin; assay: Bio-Layer Interferometry (BLI), synthetic peptide at 16, 12, 8, 4 nM, 30 C
Method: as §1

“XSQWDPWAIFWC ([ClAB‑L‑Phe]SQWDPWAIFWC; thioether (positions not given here); not fully specified (bridges)) [p2, X is ClAB-L-Phe, cyclized by thioether bond with Cys]” was tested, and the “bond to HSA (BLI binding curve)” value [1] was “bond to HSA” and the “bond with HSA (recovered cDNA after pull-down)” value [2] was “actually bond with HSA”.

“XTYNERLFWC ([ClAB‑L‑Phe]TYNERLFWC; thioether (positions not given here); not fully specified (bridges)) [p1, X is ClAB-L-Phe, cyclized by thioether bond with Cys]” was tested, and the “bond to HSA (BLI binding curve)” value [1] was “bond to HSA” and the “bond with HSA (recovered cDNA after pull-down)” value [2] was “actually bond with HSA”.

B1: Shuffled p2, displayed as An21-type complex (peptide)
peptide: [ClAB‑L‑Phe]DQSPWWWIAFCGGGGGS
modifications: thioether (positions not given here); not fully specified (C-terminus, bridges); also: C-terminal Pu-linker annealed to its mRNA/cDNA (display complex)
notes: also called No41ran
B1: no binding (human serum albumin [3]).

B2: Reversed p2, displayed as An21-type complex (peptide)
peptide: [ClAB‑L‑Phe]WFIAWPDWQSCGGGGGS
modifications: thioether (positions not given here); not fully specified (C-terminus, bridges); also: Pu-linker annealed to its mRNA/cDNA (display complex)
notes: also called No41rev
B2: no binding (human serum albumin [3]).

B3: Reversed p1, displayed as An21-type complex (peptide)
peptide: [ClAB‑L‑Phe]WFLRENYTCGGGGGS-{puromycin-An21 Pu‑linker}
modifications: thioether (positions not given here); not fully specified (bridges); reading uncertain; also: Pu-linker annealed to its mRNA/cDNA (display complex)
notes: also called No38rev
B3: no binding (human serum albumin [3]).

B4: p1: XTYNERLFWC (X is ClAB-L-Phe), chemically synthesized cyclic peptide (peptide)
peptide: [ClAB‑L‑Phe]TYNERLFWC
modifications: thioether (positions not given here); not fully specified (bridges)
notes: Made by Fmoc solid phase synthesis for the BLI assay; also called compound p1
B4: binds (human serum albumin [4]).

B5: Shuffled p1, displayed as An21-type complex (peptide)
peptide: [ClAB‑L‑Phe]RFETLNWYCGGGGGS-{puromycin-An21 Pu‑linker}
modifications: thioether (positions not given here); not fully specified (bridges); reading uncertain; also: C-terminal Pu-linker annealed to its mRNA/cDNA (display complex)
notes: also called No38ran
B5: no binding (human serum albumin [3]).

B6: p2: XSQWDPWAIFWC (X is ClAB-L-Phe), chemically synthesized cyclic peptide (peptide)
peptide: [ClAB‑L‑Phe]SQWDPWAIFWC
modifications: thioether (positions not given here); not fully specified (bridges)
notes: Made by Fmoc solid phase synthesis for the BLI assay; also called compound p2
B6: binds (human serum albumin [5]).
